Test results: PMC2657102, “Molecular cloning and characterization of a novel pyrethroid-hydrolyzing esterase originating from the Metagenome” (Microbial Cell Factories, 2008)
Several values for one entry are separate records, joined by “and”; a condition that tells them apart may be missing. Equal entries are not always repeated.

Tested on: CC1(C)C(C=C(Cl)Cl)C1C(=O)OCc1cccc(Oc2ccccc2)c1
Assay: purified protein
Details: analogous to ρ-nitrophenyl ester assay (50 mM sodium phosphate pH 7.0, 30°C)

Pye3 (pyrethroid-hydrolyzing esterase) (uncultured prokaryote)
Km: 0.10 µM and 0.18 µM
